# Data from patent publication US20050176069A1 (PHARMACIA AND UPJOHN, published 2005).
# Values joined by “and” are separate entries in the source; they are usually repeats but may differ in a detail not shown here. Identical values can stand only once. Like-named read-outs stand apart in the source and are kept apart here. Where no end group is shown, it is not given here. [ ]: non-standard residue; d: D form. Tyr(3-I) = N[C@@H](Cc1ccc(O)c(I)c1)C(=O)O; pGlu = O=C1CC[C@@H](C(=O)O)N1; Nle = CCCC[C@H](N)C(=O)O
# T1: CEGPCR4 (C. elegans)
# T1 chain: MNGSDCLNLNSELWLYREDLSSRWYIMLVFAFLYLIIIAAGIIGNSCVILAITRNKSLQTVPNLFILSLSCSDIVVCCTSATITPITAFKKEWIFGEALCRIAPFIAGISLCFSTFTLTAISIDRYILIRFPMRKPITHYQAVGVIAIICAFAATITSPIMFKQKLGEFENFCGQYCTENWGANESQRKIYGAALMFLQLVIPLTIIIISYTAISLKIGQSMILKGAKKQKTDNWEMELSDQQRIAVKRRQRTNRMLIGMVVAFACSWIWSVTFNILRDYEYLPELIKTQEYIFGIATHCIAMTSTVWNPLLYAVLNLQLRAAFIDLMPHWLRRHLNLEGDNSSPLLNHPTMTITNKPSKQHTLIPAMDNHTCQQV
# T2: CEGPCR4 (C. elegans)
# T2 construct: Expressed in CHO cells
# T2 chain: T1 chain
# T3: CEGPCR3 (C. elegans, UniProt P90745 1-376)
# T3 sequence: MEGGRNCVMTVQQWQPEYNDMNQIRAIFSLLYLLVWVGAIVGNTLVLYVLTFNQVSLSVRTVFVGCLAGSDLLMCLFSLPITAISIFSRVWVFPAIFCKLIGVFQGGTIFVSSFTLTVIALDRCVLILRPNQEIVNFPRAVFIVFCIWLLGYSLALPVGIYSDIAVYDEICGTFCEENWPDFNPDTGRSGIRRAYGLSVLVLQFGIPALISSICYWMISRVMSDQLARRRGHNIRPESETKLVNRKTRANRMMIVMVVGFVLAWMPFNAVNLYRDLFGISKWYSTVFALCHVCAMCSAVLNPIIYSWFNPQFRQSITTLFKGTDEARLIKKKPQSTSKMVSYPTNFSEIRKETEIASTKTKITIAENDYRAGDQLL
# T4: CEGPCR7 (C. elegans), Q18534
# T4 chain: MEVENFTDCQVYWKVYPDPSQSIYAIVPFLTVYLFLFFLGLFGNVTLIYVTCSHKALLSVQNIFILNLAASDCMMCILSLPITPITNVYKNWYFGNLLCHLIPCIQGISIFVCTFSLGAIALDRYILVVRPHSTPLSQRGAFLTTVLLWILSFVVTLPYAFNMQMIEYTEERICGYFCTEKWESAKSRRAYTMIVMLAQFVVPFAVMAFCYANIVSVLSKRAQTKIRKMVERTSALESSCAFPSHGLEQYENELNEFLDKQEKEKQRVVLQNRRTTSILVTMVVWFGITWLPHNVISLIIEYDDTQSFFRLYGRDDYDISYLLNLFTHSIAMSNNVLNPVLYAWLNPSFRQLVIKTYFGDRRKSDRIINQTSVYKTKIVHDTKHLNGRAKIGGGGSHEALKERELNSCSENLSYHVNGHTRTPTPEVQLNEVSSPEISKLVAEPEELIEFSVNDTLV
# T5: CEGPCR12h (C. elegans)
# T5 chain: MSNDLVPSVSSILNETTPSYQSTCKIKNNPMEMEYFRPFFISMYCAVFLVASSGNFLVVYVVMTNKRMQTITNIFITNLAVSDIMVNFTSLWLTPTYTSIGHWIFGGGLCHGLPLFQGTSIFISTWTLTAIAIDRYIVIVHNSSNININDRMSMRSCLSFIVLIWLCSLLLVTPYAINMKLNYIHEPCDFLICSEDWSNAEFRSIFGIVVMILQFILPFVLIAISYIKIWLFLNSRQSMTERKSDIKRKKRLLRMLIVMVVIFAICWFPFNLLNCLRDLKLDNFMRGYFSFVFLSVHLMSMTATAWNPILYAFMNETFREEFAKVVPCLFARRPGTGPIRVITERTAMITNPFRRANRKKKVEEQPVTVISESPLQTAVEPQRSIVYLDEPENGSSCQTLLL
# B1: p…-NH2 (leucomyosuppressin) (peptide)
# peptide: [pGlu]DVDHVFLRF-NH2
# SMILES: CC(C)C[C@H](NC(=O)[C@H](Cc1ccccc1)NC(=O)[C@@H](NC(=O)[C@H](Cc1c[nH]cn1)NC(=O)[C@H](CC(=O)O)NC(=O)[C@@H](NC(=O)[C@H](CC(=O)O)NC(=O)[C@@H]1CCC(=O)N1)C(C)C)C(C)C)C(=O)N[C@@H](CCCNC(=N)N)C(=O)N[C@@H](Cc1ccccc1)C(N)=O
# B2: VLRF-NH2 (peptide)
# peptide: VLRF-NH2
# notes: also called C-terminal tetrapeptide VLRF-NH2
# B3: 3-Iodo-Y-DVPGVLRF-NH2 (peptide)
# peptide: [Tyr(3-I)]DVPGVLRF-NH2
# modifications: also: 125I in the radiolabelled probe
# notes: N-terminally iodo-Tyr-extended flp18 analog
# B4: 3-Iodo-Y-VPGVLRF-NH2 (peptide)
# peptide: [Tyr(3-I)]VPGVLRF-NH2
# modifications: N-terminus assumed
# SMILES: CC(C)C[C@H](NC(=O)[C@@H](NC(=O)CNC(=O)[C@@H]1CCCN1C(=O)[C@@H](NC(=O)[C@@H](N)Cc1ccc(O)c(I)c1)C(C)C)C(C)C)C(=O)N[C@@H](CCCNC(=N)N)C(=O)N[C@@H](Cc1ccccc1)C(N)=O
# notes: Synthetic
# B5: 3-Iodo-Y-GVLRF-NH2 (peptide)
# peptide: [Tyr(3-I)]GVLRF-NH2
# modifications: N-terminus assumed
# SMILES: CC(C)C[C@H](NC(=O)[C@@H](NC(=O)CNC(=O)[C@@H](N)Cc1ccc(O)c(I)c1)C(C)C)C(=O)N[C@@H](CCCNC(=N)N)C(=O)N[C@@H](Cc1ccccc1)C(N)=O
# notes: Synthetic
# B6: ILNleRF-NH2 (peptide)
# peptide: IL[Nle]RF-NH2
# modifications: N-terminus assumed
# SMILES: CCCC[C@H](NC(=O)[C@H](CC(C)C)NC(=O)[C@@H](N)[C@@H](C)CC)C(=O)N[C@@H](CCCNC(=N)N)C(=O)N[C@@H](Cc1ccccc1)C(N)=O
# notes: Synthetic
# B7: 3-Iodo-Y-PGVLRF-NH2 (peptide)
# peptide: [Tyr(3-I)]PGVLRF-NH2
# modifications: N-terminus assumed
# SMILES: CC(C)C[C@H](NC(=O)[C@@H](NC(=O)CNC(=O)[C@@H]1CCCN1C(=O)[C@@H](N)Cc1ccc(O)c(I)c1)C(C)C)C(=O)N[C@@H](CCCNC(=N)N)C(=O)N[C@@H](Cc1ccccc1)C(N)=O
# notes: Synthetic; also called 3-Ioda-Y-PGVLRF-NH2
# Columns and labels:
# CEGPCR4 (C. elegans) = molecular target: T1, CEGPCR4 (C. elegans); test: competition binding assay, CEGPCR4/CHO membranes, vs [125I-Y]DVPGVLRF-NH2
# CEGPCR4 = molecular target: T2, CEGPCR4; test: as above
# CEGPCR3 = molecular target: T3, CEGPCR3; test: cell-based or functional assay
# [1] = molecular target: T4, CEGPCR7 (C. elegans), Q18534; test: cell-based or functional assay
# CEGPCR12h (C. elegans) = molecular target: T5, CEGPCR12h (C. elegans); test: cell-based or functional assay
Binder,IC50 (CEGPCR4),also measured
TDVDHVFLRF-NH2 […-NH2 (dromyosuppressin)],–,IC50 (CEGPCR4 (C. elegans)): 50000 to 500000 nM
GDVPGVLRF-NH2 […-NH2 (AF4)],–,IC50 (CEGPCR4 (C. elegans)): 0.5 to 10 nM
SAEPFGTMRF-NH2 [SAEPFGTMRF-NH2],50000 to 500000 nM,–
GNSFLRF-NH2 (also called GNSFLRFamide) [GNSFLRF-NH2],60000 to 900000 nM,"EC50, GTPγS assay (CEGPCR3): 7900 nM"
Ac-GVLRF-NH2 [Ac-GVLRF-NH2],1 to 60 nM,–
B1,–,IC50 (CEGPCR4 (C. elegans)): 60000 to 900000 nM
GMPGVLRF-NH2 [GMPGVLRF-NH2 (AF20)],–,IC50 (CEGPCR4 (C. elegans)): 0.5 to 10 nM
YDVPGVLRF-NH2 [Y-DVPGVLRF-NH2],1 to 60 nM,–
GGPQGPLRF-NH2 [GGPQGPLRF-NH2],50000 to 500000 nM,"EC50, GTPγS assay (CEGPCR3): 152 nM"
GPSGPLRF-NH2 [GPSGPLRF-NH2],–,"EC50, GTPγS assay (CEGPCR3): 422 nM"
B2,~400 nM,–
PGVLRF-NH2 [PGVLRF-NH2],1 to 60 nM,–
YGVLRF-NH2 (Synthetic) [Y-GVLRF-NH2],1 to 60 nM,–
KSVPGVLRF-NH2 [KSVPGVLRF-NH2],0.5 to 10 nM,–
SDNFMRF-NH2 [SDNFMRF-NH2],50000 to 500000 nM,–
PDNFMRF-NH2 [PDNFMRF-NH2],50000 to 500000 nM,–
B3,1 to 60 nM,–
GVLRF-NH2 [GVLRF-NH2],1 to 60 nM,–
EIPGVLRF-NH2 [EIPGVLRF-NH2],0.5 to 10 nM,–
KPNFLRF-NH2 [KPNFLRF-NH2],60000 to 900000 nM,–

Binder,IC50 (CEGPCR4),also measured
NGAPQPFVRF-NH2 [NGAPQPFVRF-NH2],50000 to 500000 nM,–
B4,1 to 60 nM,–
DFDGAMPGVLRF-NH2 [DFDGAMPGVLRF-NH2],0.5 to 10 nM,–
TNRNFLRF-NH2 [TNRNFLRF-NH2 (Lobster peptide II)],50000 to 500000 nM,–
DVPGVLRF-NH2 [DVPGVLRF-NH2],0.5 to 10 nM and 1 to 60 nM,–
YVPGVLRF-NH2 (Synthetic) [Y-VPGVLRF-NH2],1 to 60 nM,–
ASPSFIRF-NH2 [ASPSFIRF-NH2],0.5 to 10 nM,–
Ac-VPGVLRF-NH2 [Ac-VPGVLRF-NH2],1 to 60 nM,–
AVPGVLRF-NH2 [AVPGVLRF-NH2 (AF3)],–,IC50 (CEGPCR4 (C. elegans)): 0.5 to 10 nM
B5,1 to 60 nM,–
GLGPRPLRF-NH2 […-NH2 (AF9)],–,"AF9-induced [35S]GTPγS binding, cells kept at 37° C. (third of three experiments; no stimulation in the other two) [1]: 1.4 fold; AF9-induced [35S]GTPγS binding, cooling (28° C.) protocol [1]: 2.6 fold; EC50, GTPγS assay [1]: 207 nM"
PDVDHVFLRF-NH2 […-NH2 (SchistoFLRFa)],–,"EC50, [35S]GTPγS assay (CEGPCR12h (C. elegans)): 330 nM; IC50 (CEGPCR4 (C. elegans)): 60000 to 900000 nM"
SPLGTMRF-NH2 [SPLGTMRF-NH2],50000 to 500000 nM,–
VPGVLRF-NH2 [VPGVLRF-NH2],1 to 60 nM,–
YPGVLRF-NH2 (Synthetic) [Y-PGVLRF-NH2],1 to 60 nM,–
B6,60000 to 900000 nM,–
B7,1 to 60 nM,–
EIVFHQISPIFFRF-NH2 [EIVFHQISPIFFRF-NH2],50000 to 500000 nM,–
SEVPGVLRF-NH2 [SEVPGVLRF-NH2],0.5 to 10 nM,–
